In US20250339569A1 (3B PHARMACEUTICALS, published 2025):
Starred links: 1 amine or outer side, 2 acyl side, 3 side chain; linkers in the order of their positions; H or OH if unused. Positions of bridges follow the written chain, without caps; N, C: chain ends. Non-standard residues stand in square brackets, D forms with d. Primed or numbered codes have the meaning given here. *: point of attachment. Eem = S-benzyl-cysteine-sulfone, O=C([C@H](CS(=O)(=O)Cc1ccccc1)N[*:1])[*:2]; APAc″ = 2-(4-(amino)piperidin-1-yl)acetic acid, NC1CCN(CC(=O)*)CC1; DOTA = O=C(O)CN1CCN(CC(=O)O)CCN(CC(=O)*)CCN(CC(=O)O)CC1; dmo = (R)-dimethylornithine (D form); mXylylene = c1cc(C[*:1])cc(C[*:2])c1; Orn(Me2) = CN(C)CCC[C@H](N)C(=O)O; Pen = CC(C)(S)[C@H](N)C(=O)O; NHMe2Nph = not defined here; NMeS = CN[C@@H](CO)C(=O)O; hSer = N[C@@H](CCO)C(=O)O; 2Quyl = not defined here; AGLU′ = not defined here; Orn = NCCC[C@H](N)C(=O)O; APAc = not defined here; Dap = NC[C@H](N)C(=O)O; Bn = c1ccc(C*)cc1

B1: 3BP-3934 (peptide)
peptide: {DOTA}-YCE[dP]KWLEWSC-NH2
modifications: linker 2-11 via mXylylene; lactam 5-8
SMILES: CC(C)C[C@@H]1NC(=O)[C@H](Cc2c[nH]c3ccccc23)NC(=O)[C@@H]2CCCCNC(=O)CC[C@H](NC1=O)C(=O)N[C@@H](Cc1c[nH]c3ccccc13)C(=O)N[C@@H](CO)C(=O)N[C@H](C(N)=O)CSCc1cccc(c1)CSC[C@H](NC(=O)[C@H](Cc1ccc(O)cc1)NC(=O)CN1CCN(CC(=O)O)CCN(CC(=O)O)CCN(CC(=O)O)CC1)C(=O)N[C@@H](CCC(=O)O)C(=O)N1CCC[C@@H]1C(=O)N2
B2: 3BP-4005 (peptide)
peptide: Ac-VYCE[dP][Orn]WLDWSC-NH2
modifications: linker 3-12 via mXylylene; lactam 6-9
SMILES: CC(=O)N[C@H](C(=O)N[C@@H](Cc1ccc(O)cc1)C(=O)N[C@H]1CSCc2cccc(c2)CSC[C@@H](C(N)=O)NC(=O)[C@H](CO)NC(=O)[C@H](Cc2c[nH]c3ccccc23)NC(=O)[C@@H]2CC(=O)NCCC[C@H](NC(=O)[C@H]3CCCN3C(=O)[C@H](CCC(=O)O)NC1=O)C(=O)N[C@@H](Cc1c[nH]c3ccccc13)C(=O)N[C@@H](CC(C)C)C(=O)N2)C(C)C
B3: 3BP-3963 (peptide)
peptide: Ac-VYCE[dP]KWLEWS[Pen]-NH2
modifications: linker 3-12 via mXylylene; lactam 6-9
SMILES: CC(=O)N[C@H](C(=O)N[C@@H](Cc1ccc(O)cc1)C(=O)N[C@H]1CSCc2cccc(c2)CSC(C)(C)[C@@H](C(N)=O)NC(=O)[C@H](CO)NC(=O)[C@H](Cc2c[nH]c3ccccc23)NC(=O)[C@@H]2CCC(=O)NCCCC[C@H](NC(=O)[C@H]3CCCN3C(=O)[C@H](CCC(=O)O)NC1=O)C(=O)N[C@@H](Cc1c[nH]c3ccccc13)C(=O)N[C@@H](CC(C)C)C(=O)N2)C(C)C
B4: 3BP-3905 (peptide)
peptide: {DOTA-APAc}-VYCE[dP]DWLTWSC-NH2
modifications: linker 3-12 via mXylylene; reading uncertain; also: ['indium complexed by DOTA']

Target: human carbonic anhydrase 9 (CAIX) (human, UniProt Q16790 38-459)
Test: FACS competition on HT-29 cells, competitor tracer 3BP-2776; category A = pIC50 >8.0
Description: CAIX-expressing human HT-29 colorectal cancer cells (DSMZ, RRID: CVCL_0320) were cultured in McCoys's 5A modified medium (Biochrom, #F1015) including 10% fetal calf serum (FCS), 2 mM L-glutamine, 100 U/ml penicillin and 100 μg/mL streptomycin. Cells were detached with Accutase (Biolegend, #423201) and washed in FACS buffer (PBS including 1% FCS). Cells were diluted in FACS buffer to a final concentration of 500.000 cells per ml. 200 μL of the cell suspension were transferred to a u-shaped non-binding 96-well plate (Greiner) and cells were washed in ice-cold FACS buffer.
When biotinylated compounds were used an additional incubation step with 1 μg/mL APC-Streptavidin (Miltenyi; #130-106-791) in 50 μL FACS buffer for 30 minutes on ice was performed.
Cells were washed twice with ice-cold FACS buffer and analyzed in an Attune NxT flow cytometer (Thermo Fisher). Median fluorescence intensities (MFI) of the APC/Cy5-channel were calculated by Attune NxT software.

pIC50, > 8 pic50:
{DOTA}-YCE[dP]DWLTWSC-NH2 (linker 2-11 via mXylylene; also: ['indium complexed by DOTA']) [3BP-3906]
B1
{DOTA-APAc}-VYCE[dmo]DWLTWSC-NH2 (linker 3-12 via mXylylene; reading uncertain) [3BP-4097]
{DOTA-APAc}-V[Orn(Me2)]CE[dP]DWLTWSC-NH2 (linker 3-12 via mXylylene; reading uncertain) [3BP-4095]
{DOTA-APAc″}-V[Dap]CE[dP]DWLTWEC-NH2 (lactam 2-11; linker 3-12 via mXylylene) [3BP-4177]
{DOTA-APAc″}-V[Dap]CE[dP]DWLTWDC-NH2 (lactam 2-11; linker 3-12 via mXylylene) [3BP-4176]
{DOTA-APAc}-VSCE[dP]DWLTWSC-NH2 (linker 3-12 via mXylylene; reading uncertain) [3BP-4105]
{DOTA-APAc}-VYCE[dP]DWLTWEC-NH2 (linker 3-12 via mXylylene; not fully specified (residue 11); reading uncertain) [3BP-4122]
{DOTA-APAc}-VYCE[dP]DYLTWSC-NH2 (linker 3-12 via mXylylene; not fully specified; reading uncertain) [3BP-4136]
{DOTA-APAc″}-VYCE[dP]E(NHMe2Nph)WLTWSC-NH2 (linker 3-12 via mXylylene; reading uncertain) [3BP-4215]
{DOTA-APAc}-VYCE[dP]DWLE(AGLU′)WSC-NH2 (linker 3-12 via mXylylene; reading uncertain) [3BP-4121]
{DOTA-APAc}-VYC[NMeS][dP]DWLTWSC-NH2 (linker 3-12 via mXylylene; reading uncertain) [3BP-4108]
{DOTA-APAc}-VYCE[dE](AGLU′)DWLTWSC-NH2 (linker 3-12 via mXylylene; reading uncertain) [3BP-4119]
{DOTA-APAc}-VYCE[dP]C(2Quyl)WLTWSC-NH2 (linker 3-12 via mXylylene; not fully specified; reading uncertain) [3BP-4129]
{DOTA-APAc}-VYCE[dP]C(Bn)WLTWSC-NH2 (linker 3-12 via mXylylene; not fully specified; reading uncertain) [3BP-4128]
{DOTA-APAc}-VYCE[dP]Y(Bn)WLTWSC-NH2 (linker 3-12 via mXylylene; not fully specified; reading uncertain) [3BP-4127]
{DOTA-APAc}-VYCE[dP]DC(Bn)LTWSC-NH2 (linker 3-12 via mXylylene; not fully specified; reading uncertain) [3BP-4130]
{DOTA-APAc}-VE(AGLU′)CE[dP]DWLTWSC-NH2 (linker 3-12 via mXylylene; reading uncertain) [3BP-4112]
B2
{DOTA-APAc}-VYCE[dP][Eem]WLTWSC-NH2 (linker 3-12 via mXylylene; not fully specified; reading uncertain) [3BP-4123]
{DOTA-APAc}-VYCE[dP][hSer]WLTWSC-NH2 (linker 3-12 via mXylylene; reading uncertain) [3BP-4102]
{DOTA-APAc}-VYCE[dP]DWL[Orn(Me2)]WSC-NH2 (linker 3-12 via mXylylene; reading uncertain) [3BP-4099]
{DOTA-APAc}-VYC[Orn(Me2)][dP]DWLTWSC-NH2 (linker 3-12 via mXylylene; reading uncertain) [3BP-4096]
B3
B4
